Experimental findings from US20110105394A1 (Novo Nordisk, published 2011) are described below.

*1 amine or outer side, *2 acyl side, *3 side chain or, on linkers, in order; H or OH if unused. Bridges are numbered along the chain shown (N, C = ends). The star is where a group is joined. C20 diacid = O=C(O)CCCCCCCCCCCCCCCCCCC(=O)*; γGlu = O=C(O)[C@H](CCC(=O)[*:2])N[*:1]

The target in this experiment is T1, Amylin 3(a) receptor (human calcitonin receptor (CTa) with RAMP-3) (human) (UniProt P30988).
T1 sequence (looked up) 1: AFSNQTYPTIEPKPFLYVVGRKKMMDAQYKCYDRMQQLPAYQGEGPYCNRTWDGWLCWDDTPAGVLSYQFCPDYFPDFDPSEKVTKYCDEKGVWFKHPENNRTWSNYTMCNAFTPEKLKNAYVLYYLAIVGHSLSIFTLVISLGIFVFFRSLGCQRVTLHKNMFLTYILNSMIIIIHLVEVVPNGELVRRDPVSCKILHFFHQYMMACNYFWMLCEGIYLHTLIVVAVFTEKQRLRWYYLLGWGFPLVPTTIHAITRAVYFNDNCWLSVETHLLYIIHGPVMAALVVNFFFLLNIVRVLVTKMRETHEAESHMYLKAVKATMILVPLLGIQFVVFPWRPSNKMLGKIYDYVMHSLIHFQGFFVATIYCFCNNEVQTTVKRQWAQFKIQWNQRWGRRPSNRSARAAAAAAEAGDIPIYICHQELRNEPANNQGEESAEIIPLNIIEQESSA
T1 sequence (looked up) 2: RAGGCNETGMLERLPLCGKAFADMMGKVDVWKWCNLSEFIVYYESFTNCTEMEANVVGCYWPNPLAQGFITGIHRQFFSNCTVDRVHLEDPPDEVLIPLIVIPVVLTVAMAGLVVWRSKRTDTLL
The experiment in a line: cell-based or functional assay.

B1: N-alpha-(19-carboxynonadecanoyl)-Glu-Glu-Arg-[Glu1,Glu14,His17,Glu31]-pramlintide (peptide)
peptide: {C20 diacid}-EERECNTATCATQRLAEFLHHSSNNFGPILPPTEVGSNTY-NH2
modifications: disulfide 5-10
SMILES: CC[C@H](C)[C@H](NC(=O)[C@@H]1CCCN1C(=O)CNC(=O)[C@H](Cc1ccccc1)NC(=O)[C@H](CC(N)=O)NC(=O)[C@H](CC(N)=O)NC(=O)[C@H](CO)NC(=O)[C@H](CO)NC(=O)[C@H](Cc1c[nH]cn1)NC(=O)[C@H](Cc1c[nH]cn1)NC(=O)[C@H](CC(C)C)NC(=O)[C@H](Cc1ccccc1)NC(=O)[C@H](CCC(=O)O)NC(=O)[C@H](C)NC(=O)[C@H](CC(C)C)NC(=O)[C@H](CCCNC(=N)N)NC(=O)[C@H](CCC(N)=O)NC(=O)[C@@H](NC(=O)[C@H](C)NC(=O)[C@@H]1CSSC[C@H](NC(=O)[C@H](CCC(=O)O)NC(=O)[C@H](CCCNC(=N)N)NC(=O)[C@H](CCC(=O)O)NC(=O)[C@H](CCC(=O)O)NC(=O)CCCCCCCCCCCCCCCCCCC(=O)O)C(=O)N[C@@H](CC(N)=O)C(=O)N[C@@H]([C@@H](C)O)C(=O)N[C@@H](C)C(=O)N[C@@H]([C@@H](C)O)C(=O)N1)[C@@H](C)O)C(=O)N[C@@H](CC(C)C)C(=O)N1CCC[C@H]1C(=O)N1CCC[C@H]1C(=O)N[C@H](C(=O)N[C@@H](CCC(=O)O)C(=O)N[C@H](C(=O)NCC(=O)N[C@@H](CO)C(=O)N[C@@H](CC(N)=O)C(=O)N[C@H](C(=O)N[C@@H](Cc1ccc(O)cc1)C(N)=O)[C@@H](C)O)C(C)C)[C@@H](C)O
Turning to B1, the Potency Luciferase was determined as 0.9 nM.

B2: N-alpha-[(S)-4-Carboxy-4-(19-carboxynonadecanoylamino)butyryl]-Glu-His-Arg-[His1,His17]-pramlintide (peptide)
peptide: {C20 diacid-γGlu}-EHRHCNTATCATQRLANFLHHSSNNFGPILPPTNVGSNTY-NH2
modifications: disulfide 5-10
SMILES: CC[C@H](C)[C@H](NC(=O)[C@@H]1CCCN1C(=O)CNC(=O)[C@H](Cc1ccccc1)NC(=O)[C@H](CC(N)=O)NC(=O)[C@H](CC(N)=O)NC(=O)[C@H](CO)NC(=O)[C@H](CO)NC(=O)[C@H](Cc1c[nH]cn1)NC(=O)[C@H](Cc1c[nH]cn1)NC(=O)[C@H](CC(C)C)NC(=O)[C@H](Cc1ccccc1)NC(=O)[C@H](CC(N)=O)NC(=O)[C@H](C)NC(=O)[C@H](CC(C)C)NC(=O)[C@H](CCCNC(=N)N)NC(=O)[C@H](CCC(N)=O)NC(=O)[C@@H](NC(=O)[C@H](C)NC(=O)[C@@H]1CSSC[C@H](NC(=O)[C@H](Cc2c[nH]cn2)NC(=O)[C@H](CCCNC(=N)N)NC(=O)[C@H](Cc2c[nH]cn2)NC(=O)[C@H](CCC(=O)O)NC(=O)CC[C@H](NC(=O)CCCCCCCCCCCCCCCCCCC(=O)O)C(=O)O)C(=O)N[C@@H](CC(N)=O)C(=O)N[C@@H]([C@@H](C)O)C(=O)N[C@@H](C)C(=O)N[C@@H]([C@@H](C)O)C(=O)N1)[C@@H](C)O)C(=O)N[C@@H](CC(C)C)C(=O)N1CCC[C@H]1C(=O)N1CCC[C@H]1C(=O)N[C@H](C(=O)N[C@@H](CC(N)=O)C(=O)N[C@H](C(=O)NCC(=O)N[C@@H](CO)C(=O)N[C@@H](CC(N)=O)C(=O)N[C@H](C(=O)N[C@@H](Cc1ccc(O)cc1)C(N)=O)[C@@H](C)O)C(C)C)[C@@H](C)O
With B2, the Potency Luciferase was 0.1 nM.

B3: N-alpha-[(S)-4-Carboxy-4-(19-carboxynonadecanoylamino)butyryl]-Glu-His-His-[Arg1,Arg17]-pramlintide (peptide)
peptide: {C20 diacid-γGlu}-EHHRCNTATCATQRLANFLRHSSNNFGPILPPTNVGSNTY-NH2
modifications: disulfide 5-10
SMILES: CC[C@H](C)[C@H](NC(=O)[C@@H]1CCCN1C(=O)CNC(=O)[C@H](Cc1ccccc1)NC(=O)[C@H](CC(N)=O)NC(=O)[C@H](CC(N)=O)NC(=O)[C@H](CO)NC(=O)[C@H](CO)NC(=O)[C@H](Cc1c[nH]cn1)NC(=O)[C@H](CCCNC(=N)N)NC(=O)[C@H](CC(C)C)NC(=O)[C@H](Cc1ccccc1)NC(=O)[C@H](CC(N)=O)NC(=O)[C@H](C)NC(=O)[C@H](CC(C)C)NC(=O)[C@H](CCCNC(=N)N)NC(=O)[C@H](CCC(N)=O)NC(=O)[C@@H](NC(=O)[C@H](C)NC(=O)[C@@H]1CSSC[C@H](NC(=O)[C@H](CCCNC(=N)N)NC(=O)[C@H](Cc2c[nH]cn2)NC(=O)[C@H](Cc2c[nH]cn2)NC(=O)[C@H](CCC(=O)O)NC(=O)CC[C@H](NC(=O)CCCCCCCCCCCCCCCCCCC(=O)O)C(=O)O)C(=O)N[C@@H](CC(N)=O)C(=O)N[C@@H]([C@@H](C)O)C(=O)N[C@@H](C)C(=O)N[C@@H]([C@@H](C)O)C(=O)N1)[C@@H](C)O)C(=O)N[C@@H](CC(C)C)C(=O)N1CCC[C@H]1C(=O)N1CCC[C@H]1C(=O)N[C@H](C(=O)N[C@@H](CC(N)=O)C(=O)N[C@H](C(=O)NCC(=O)N[C@@H](CO)C(=O)N[C@@H](CC(N)=O)C(=O)N[C@H](C(=O)N[C@@H](Cc1ccc(O)cc1)C(N)=O)[C@@H](C)O)C(C)C)[C@@H](C)O
As for B3, the Potency Luciferase was determined as 0.2 nM.

B4: N-alpha-[(S)-4-Carboxy-4-(19-carboxynonadecanoylamino)butyryl]-Glu-His-Arg-[Arg1,His17]-pramlintide (peptide)
peptide: {C20 diacid-γGlu}-EHRRCNTATCATQRLANFLHHSSNNFGPILPPTNVGSNTY-NH2
modifications: disulfide 5-10
SMILES: CC[C@H](C)[C@H](NC(=O)[C@@H]1CCCN1C(=O)CNC(=O)[C@H](Cc1ccccc1)NC(=O)[C@H](CC(N)=O)NC(=O)[C@H](CC(N)=O)NC(=O)[C@H](CO)NC(=O)[C@H](CO)NC(=O)[C@H](Cc1c[nH]cn1)NC(=O)[C@H](Cc1c[nH]cn1)NC(=O)[C@H](CC(C)C)NC(=O)[C@H](Cc1ccccc1)NC(=O)[C@H](CC(N)=O)NC(=O)[C@H](C)NC(=O)[C@H](CC(C)C)NC(=O)[C@H](CCCNC(=N)N)NC(=O)[C@H](CCC(N)=O)NC(=O)[C@@H](NC(=O)[C@H](C)NC(=O)[C@@H]1CSSC[C@H](NC(=O)[C@H](CCCNC(=N)N)NC(=O)[C@H](CCCNC(=N)N)NC(=O)[C@H](Cc2c[nH]cn2)NC(=O)[C@H](CCC(=O)O)NC(=O)CC[C@H](NC(=O)CCCCCCCCCCCCCCCCCCC(=O)O)C(=O)O)C(=O)N[C@@H](CC(N)=O)C(=O)N[C@@H]([C@@H](C)O)C(=O)N[C@@H](C)C(=O)N[C@@H]([C@@H](C)O)C(=O)N1)[C@@H](C)O)C(=O)N[C@@H](CC(C)C)C(=O)N1CCC[C@H]1C(=O)N1CCC[C@H]1C(=O)N[C@H](C(=O)N[C@@H](CC(N)=O)C(=O)N[C@H](C(=O)NCC(=O)N[C@@H](CO)C(=O)N[C@@H](CC(N)=O)C(=O)N[C@H](C(=O)N[C@@H](Cc1ccc(O)cc1)C(N)=O)[C@@H](C)O)C(C)C)[C@@H](C)O
Regarding B4, the Potency Luciferase amounted to 0.2 nM.

B5: N-alpha-[(S)-4-Carboxy-4-(19-carboxynonadecanoylamino)butyryl]-Glu-His-His-[His1,His17]-pramlintide (peptide)
peptide: {C20 diacid-γGlu}-EHHHCNTATCATQRLANFLHHSSNNFGPILPPTNVGSNTY-NH2
modifications: disulfide 5-10
SMILES: CC[C@H](C)[C@H](NC(=O)[C@@H]1CCCN1C(=O)CNC(=O)[C@H](Cc1ccccc1)NC(=O)[C@H](CC(N)=O)NC(=O)[C@H](CC(N)=O)NC(=O)[C@H](CO)NC(=O)[C@H](CO)NC(=O)[C@H](Cc1c[nH]cn1)NC(=O)[C@H](Cc1c[nH]cn1)NC(=O)[C@H](CC(C)C)NC(=O)[C@H](Cc1ccccc1)NC(=O)[C@H](CC(N)=O)NC(=O)[C@H](C)NC(=O)[C@H](CC(C)C)NC(=O)[C@H](CCCNC(=N)N)NC(=O)[C@H](CCC(N)=O)NC(=O)[C@@H](NC(=O)[C@H](C)NC(=O)[C@@H]1CSSC[C@H](NC(=O)[C@H](Cc2c[nH]cn2)NC(=O)[C@H](Cc2c[nH]cn2)NC(=O)[C@H](Cc2c[nH]cn2)NC(=O)[C@H](CCC(=O)O)NC(=O)CC[C@H](NC(=O)CCCCCCCCCCCCCCCCCCC(=O)O)C(=O)O)C(=O)N[C@@H](CC(N)=O)C(=O)N[C@@H]([C@@H](C)O)C(=O)N[C@@H](C)C(=O)N[C@@H]([C@@H](C)O)C(=O)N1)[C@@H](C)O)C(=O)N[C@@H](CC(C)C)C(=O)N1CCC[C@H]1C(=O)N1CCC[C@H]1C(=O)N[C@H](C(=O)N[C@@H](CC(N)=O)C(=O)N[C@H](C(=O)NCC(=O)N[C@@H](CO)C(=O)N[C@@H](CC(N)=O)C(=O)N[C@H](C(=O)N[C@@H](Cc1ccc(O)cc1)C(N)=O)[C@@H](C)O)C(C)C)[C@@H](C)O
With B5, the Potency Luciferase is 0.1 nM.

B6: N-alpha-[(S)-4-Carboxy-4-(19-carboxynonadecanoylamino)butyryl]-GluHis-His-[Arg1,His17,Gln21]-pramlintide (peptide)
peptide: {C20 diacid-γGlu}-EHHRCNTATCATQRLANFLHHSSQNFGPILPPTNVGSNTY-NH2
modifications: disulfide 5-10
SMILES: CC[C@H](C)[C@H](NC(=O)[C@@H]1CCCN1C(=O)CNC(=O)[C@H](Cc1ccccc1)NC(=O)[C@H](CC(N)=O)NC(=O)[C@H](CCC(N)=O)NC(=O)[C@H](CO)NC(=O)[C@H](CO)NC(=O)[C@H](Cc1c[nH]cn1)NC(=O)[C@H](Cc1c[nH]cn1)NC(=O)[C@H](CC(C)C)NC(=O)[C@H](Cc1ccccc1)NC(=O)[C@H](CC(N)=O)NC(=O)[C@H](C)NC(=O)[C@H](CC(C)C)NC(=O)[C@H](CCCNC(=N)N)NC(=O)[C@H](CCC(N)=O)NC(=O)[C@@H](NC(=O)[C@H](C)NC(=O)[C@@H]1CSSC[C@H](NC(=O)[C@H](CCCNC(=N)N)NC(=O)[C@H](Cc2c[nH]cn2)NC(=O)[C@H](Cc2c[nH]cn2)NC(=O)[C@H](CCC(=O)O)NC(=O)CC[C@H](NC(=O)CCCCCCCCCCCCCCCCCCC(=O)O)C(=O)O)C(=O)N[C@@H](CC(N)=O)C(=O)N[C@@H]([C@@H](C)O)C(=O)N[C@@H](C)C(=O)N[C@@H]([C@@H](C)O)C(=O)N1)[C@@H](C)O)C(=O)N[C@@H](CC(C)C)C(=O)N1CCC[C@H]1C(=O)N1CCC[C@H]1C(=O)N[C@H](C(=O)N[C@@H](CC(N)=O)C(=O)N[C@H](C(=O)NCC(=O)N[C@@H](CO)C(=O)N[C@@H](CC(N)=O)C(=O)N[C@H](C(=O)N[C@@H](Cc1ccc(O)cc1)C(N)=O)[C@@H](C)O)C(C)C)[C@@H](C)O
Take B6: the Potency Luciferase came to 0.1 nM.
